Source: patent US10441636B2, “Method of diagnosis and treatment” (LA TROBE UNIVERSITY, priority 2012, dated 2019)
Entries after “also recorded” stand apart in the source; their conditions may differ.

Assays:
[1] = test system: 4T1.2 tumours; assay: 4T1.2 tumour bearing mice treated with poly I:C (bioluminescence imaging, Q-PCR of tumour burden); assay type: in vivo
Protocol: Mice bearing 4T1.2 cells were treated with 25 ug poly I:C 3× weekly by tail vein injection beginning at day 3. (a) Bioluminescence imaging of 4T1.2 primary tumour burden prior to surgical resection (b) Bioluminescence imaging of metastatic burden in mice treated with vehicle or poly I:C (c) Q-PCR detection of 4T1.2 tumour burden in femur, spine and lung of mice at day 33.
These techniques have previously been described by Eckhardt and colleagues (Eckhardt 2005). Briefly, mice were inoculated with 10^5 cells into the 4th mammary fatpad of female 6-8 week old Balb/c mice. Tumour volumes were monitored by caliper measurement 3 times weekly. […] Metastatic burden in secondary tissues was detected by a Q-PCR based assay using a reporter sequence inserted into the genome of the 4T1.2 cells. Survival assays were conducted in the same way except at day 22 the mice were anaesthetized using either a combination of ketamine hydrochloride (1.2 m/g of mouse)/xylaxil hydrochloride (3 μg/g of mouse) or 2.5% aerosol isoflurane in 100% oxygen and the primary tumour was surgically removed and weighed. […] At time of sacrifice, all mice had evidence of bone and lung metastasis unless otherwise stated. Anti-CD8 (clone 53-6.7, produced in house) and the control antibody rat IgG2a (clone 2A3, produced in house) were injected intraperitoneally at 50 μg per dose on days −1, 0, 1, 4, 7 and subsequently every 7 d. Rabbit anti-asialo GM1 was purchased from Wako chemicals and injected intraperitoneally according to the manufacturer's instructions.

[2] = test system: 4T1.2 tumours; assay: Early treatment setting after primary tumour resection: poly I:C, doxorubicin or combination (bioluminescence imaging); assay type: in vivo, Balb/c mice; settings: treatment from 2 days after resection for 2 weeks; 25 ug poly I:C every 2 days, 4 mg/kg doxorubicin every 4 days; bioluminescence (FIG. 21)
Protocol: 4T1.2 cells were inoculated into the 4th mammary gland of Balb/c mice. Primary tumours were resected when they reached 0.2 g and 2 days later treatment was started for a period of 2 weeks. Mice were treated with vehicle alone, 25 ug poly I:C every 2 days, 4 mg/kg doxorubicin every 4 days, or the combination of poly I:C and doxorubicin. Metastatic burden was visualised in all mice at a set time point using bioluminescence imaging.

[3] = test system: 4T1.2 cells; assay: Real-time RT-PCR of 4T1.2 cells treated with recombinant IFN-α1; assay type: cell-based, mouse; settings: 4T1.2 cells in vitro, recombinant IFN-α1 1000 IU/mL, real-time RT-PCR (FIG. 6a)
Source text: (§1) FIG. 6: The effect of type I IFN treatment on metastasis. (a) Real-time RT-PCR analysis of 4T1.2 cells treated with […] recombinant IFN-α1. (n=3, * p<0.05, error bars are S.E.M.). (b) Proliferation of 4T1.2 cells treated with 1000 IU/mL of recombinant […]. (n=6, error bars are S.E.M.). (c) Primary tumour volume, n=15. (d) Q-PCR detection of metastatic 4T1.2 tumour burden in spine (at day 33 post tumour cell inoculation) of mice treated with IFNα1 or vehicle. (e) H&E stained sections of spines and femurs from 4T1.2 bearing mice treated with IFN-α1 or vehicle (Scale bar=50 T=Tumour). (f) Kaplan-Meier disease-free survival analysis of mice bearing 4T1.2 tumours that were subsequently resected. Mice were treated with 10^5 IU of recombinant IFN-α1 or saline from day 3. (n=15).
66cl4 and 4T1 cell lines were kindly provided by Dr. Fred Miller (Karmanos Cancer Institute, Detroit, Mich.). Derivation of the 4T1.2 line has previously been described (Eckhardt et al. 2005, supra; Lelekakis et al. 1999, supra). Recombinant Interferon-α1 was used at a dose of 1000 IU/mL. Interferon-α receptor blocking antibody (MAR1-5A3) was used at a concentration of 10 μg/mL (Leinco, St Louis, Mo.). G-CSF ELISA was performed according to manufacturer's instructions (R&D Systems, Minneapolis, Minn., USA). Flow cytometry was performed using standard techniques. MDSCs were assessed using Ly6G (clone IA8) and CD11b (clone M1/70) specific antibodies (BD Pharmingen, Franklin Lakes, N.J., USA) at a dilution of 1:200. Flow Cytometry was performed using an LSR-II (BD Pharmingen, San Jose, Calif.). Real-time RT-PCR was performed using standard techniques. In vitro proliferation was assessed using a sulforhodamine B binding assay as previously described (Eckhardt et al. 2005, supra). […]
Expression level of each gene was calculated based on the cycle threshold (CT), set within the linear range of DNA amplification. Expression level (arbitrary units) was calculated as relative transcript abundance (RTA) by: RTA=10000/(2^ΔCT), where ΔCT=CT (gene of interest)−CT(GAPDH).

[4] = test system: 4T1.2 cells; assay: In vitro proliferation of 4T1.2 cells (sulforhodamine B binding assay); assay type: cell-based, mouse; settings: 1000 IU/mL recombinant IFN-α1 (FIG. 6b)
Source text: as §1
66cl4 and 4T1 cell lines were kindly provided by Dr. Fred Miller (Karmanos Cancer Institute, Detroit, Mich.). Derivation of the 4T1.2 line has previously been described (Eckhardt et al. 2005, supra; Lelekakis et al. 1999, supra). Recombinant Interferon-α1 was used at a dose of 1000 IU/mL. […] MDSCs were assessed using Ly6G (clone IA8) and CD11b (clone M1/70) specific antibodies (BD Pharmingen, Franklin Lakes, N.J., USA) at a dilution of 1:200. […] In vitro proliferation was assessed using a sulforhodamine B binding assay as previously described (Eckhardt et al. 2005, supra). […]

[5] = test system: 4T1.2 tumours; assay: Mouse metastasis assay, 4T1.2 mammary tumours, IFN-α1 treatment; assay type: in vivo, Balb/c mice
Source text: as §1
Female Balb/c mice (6-8 weeks old) were obtained from ARC (Perth, WA, Australia) or Walter and Eliza Hall Institute (Kew, Vic, Australia) breeding facilities. Female NSG mice were obtained from WEHI breeding facility under license from The Jackson Laboratory and Balb/c Ifnar1^−/− (Hwang et al. 1995, supra) were bred in-house. Recombinant IFN-α1 was injected intraperitoneally 3 times weekly at a dose of 10^5 IU/dose. All other mouse assays were performed using standard techniques. Metastasis was assessed using a previously described assay (Eckhardt et al. 2005, supra). Mouse investigations were performed with the approval of the Peter MacCallum Animal Ethics Experimentation Committee.
(§2) These techniques have previously been described by Eckhardt and colleagues (Eckhardt 2005). Briefly, mice were inoculated with 10^5 cells into the 4th mammary fatpad of female 6-8 week old Balb/c mice. Tumour volumes were monitored by caliper measurement 3 times weekly. […] Metastatic burden in secondary tissues was detected by a Q-PCR based assay using a reporter sequence inserted into the genome of the 4T1.2 cells. […]

[6] = test system: 4T1.2 tumours; assay: Metastasis-free survival assay with primary tumour resection, IFN-α1 treatment; assay type: in vivo, Balb/c mice
Source text: as §1
Female Balb/c mice (6-8 weeks old) were obtained from ARC (Perth, WA, Australia) or Walter and Eliza Hall Institute (Kew, Vic, Australia) breeding facilities. […] Metastasis was assessed using a previously described assay (Eckhardt et al. 2005, supra). […]
as §2, with “Briefly, mice were inoculated with 10^5 cells into the 4th mammary fatpad of female 6-8 week old Balb/c mice.” left out

[7] = test system: 4T1.2 tumour bearing mice; assay: Immune cell populations (flow cytometry) and G-CSF (ELISA) in 4T1.2 tumour bearing mice treated with IFN-α1; assay type: in vivo, Balb/c mice
Protocol: FIG. 18: Measurement of MDSC and G-CSF in blood of 4T1.2 tumour bearing mice treated with IFNα1. Mice were treated with IFN-al or saline control one day after 4T1.2 tumour cell inoculation into the mammary gland. Five days after tumour inoculation, MDSC percentage (a) and absolute numbers (b) were measured, along with G-CSF levels by ELISA (c).
FIG. 19: Changes in immune cells in the mammary gland, lung and bone. a) Mice were treated with IFN-α1 or saline control on day 1, 3 and 5 after 4T1.2 tumour cell inoculation into the mammary gland. Ten days after tumour inoculation MDSC, NK, CD4^+ and CD8^+ T cell percentages were measured in fatpad/primary tumour, lung and bone marrow. N=5. Difference between treatment groups was assessed using an unpaired T test and significance is indicated. b) Cells isolated from the mammary gland, lung and bone marrow of naïve Balb/c mice were stained for DX5, TCR, CD11b and CD27. Shown are representative profiles for CD11b and CD27 expression on gated DX5^+TCR. Percentage of CD11b^low/high and/or CD27^low/high are indicated.
66cl4 and 4T1 cell lines were kindly provided by Dr. Fred Miller (Karmanos Cancer Institute, Detroit, Mich.). Derivation of the 4T1.2 line has previously been described (Eckhardt et al. 2005, supra; Lelekakis et al. 1999, supra). Recombinant Interferon-α1 was used at a dose of 1000 IU/mL. Interferon-α receptor blocking antibody (MAR1-5A3) was used at a concentration of 10 μg/mL (Leinco, St Louis, Mo.). G-CSF ELISA was performed according to manufacturer's instructions (R&D Systems, Minneapolis, Minn., USA). Flow cytometry was performed using standard techniques. MDSCs were assessed using Ly6G (clone IA8) and CD11b (clone M1/70) specific antibodies (BD Pharmingen, Franklin Lakes, N.J., USA) at a dilution of 1:200. Flow Cytometry was performed using an LSR-II (BD Pharmingen, San Jose, Calif.). Real-time RT-PCR was performed using standard techniques. In vitro proliferation was assessed using a sulforhodamine B binding assay as previously described (Eckhardt et al. 2005, supra). Immunohistochemistry was performed using standard techniques, using α-mouse Irf7 (Zymed/Invitrogen, Carlsbad, Calif., USA) α-human Irf7 (BD Pharmingen, Franklin Lakes, N.J., USA) at a concentration of 5 μg/mL.

[8] = IFN-α1 on day 1, 3 and 5, measured ten days after tumour inoculation (FIG. 19a)

Molecule	primary tumour growth ([1]; 25 ug poly I:C 3x weekly by tail vein injection from day 3, bioluminescence imaging (FIG. 20a))	metastatic burden in lung and bone ([1]; 25 ug poly I:C 3x weekly, PCR detection of tumour cell markers at day 33 (FIG. 20c))	metastasis to multiple organs ([1]; 25 ug poly I:C 3x weekly, bioluminescence after primary tumour resection (FIG. 20b))	metastasis at end point [2]	expression of Irf7 [3]	expression of Irf9 [3]	expression of STAT1 [3]	4T1.2 cell proliferation in vitro [4]	metastasis to the spine and femur ([5]; 10^5 IU/dose i.p. 3 times weekly, Q-PCR at day 33 and H&E, vs vehicle, P<0.007 (FIG. 6d, e))	extent of metastasis to lung ([5]; 10^5 IU/dose i.p. 3 times weekly, Q-PCR, endpoint day 33 (FIG. 17))	primary tumour growth in vivo ([5]; 10^5 IU/dose intraperitoneally 3 times weekly (FIG. 6c))	metastasis-free survival ([6]; 10^5 IU recombinant IFN-α1 or saline for five weeks, primary tumour resection at 3 weeks (FIG. 6f))	growth of primary tumours ([6]; survival study, treatment for five weeks, primary tumour resection at 3 weeks)	G-CSF levels in the peripheral blood ([7]; 4T1.2 tumour bearing mice, IFN-α1 vs saline, ELISA (FIG. 18c))	MDSC accumulation in the peripheral blood ([7]; 4T1.2 tumour bearing mice, IFN-α1 vs saline, five days after tumour inoculation (FIG. 18), listed as IFN)	CD11b+Ly6G+ MDSC in the bone marrow [7, 8]	NK cells at the primary site or in lungs [7, 8]	NK cells in the bone marrow [7, 8]
poly I:C	did not alter	significant decrease	suppressed metastasis to multiple organs; also recorded: suppresses metastasis	did not significantly impact metastasis														
COc1cccc2c1C(=O)c1c(O)c3c(c(O)c1C2=O)C[C@@](O)(C(=O)CO)C[C@@H]3O[C@H]1C[C@H](N)[C@H](O)[C@H](C)O1 [doxorubicin]				did not significantly impact metastasis														
IFN-α1: Recombinant Interferon-α1, a type I IFN, injected intraperitoneally 3 times weekly at 10^5 IU/dose (protein, UniProt P01562 24-189, looked up) Interferon alpha-1/13: CDLPETHSLDNRRTLMLLAQMSRISPSSCLMDRHDFGFPQEEFDGNQFQKAPAISVLHELIQQIFNLFTTKDSSAAWDEDLLDKFCTELYQQLNDLEACVMQEERVGETPLMNADSILAVKKYFRRITLYLTEKKYSPCAWEVVRAEIMRSLSLSTNLQERLRRKE					increased expression	increased expression	increased expression	did not affect	significantly reduced metastasis to the spine and femur to undetectable levels	not reduced	did not affect	significant extension	no effect	decreased	significantly decreased	significantly decreased	not observed	significantly increased
